The source of these data is patent US20220227827A1 (DINGFU BIOTARGET, published 2022).

The term EC50 denotes the concentration that produces a half-maximal response.

B1: reverse-(IL10)2-Fc9-a (Fc fusion)
chain 1: EPKSSDKTHTCPPCPAPELLGGPSVFLFPPKPKDTLMISRTPEVTCVVVDVSHEDPEVKFNWYVDGVEVHNAKTKPREEQYNSTYRVVSVLTVLHQDWLNGKEYKCKVSNKALPAPIEKTISKAKGQPREPQVYTLPPSRDELTKNQVSLSCGVKGFYPSDIAVEWESNGQPENNYKTTPPVLDSDGSFKLASKLTVDKSRWQQGNVFSCSVMHEALHNHYTQKSLSLSPGKGGGGSGGGGSGGGGSSPGQGTQSENSCTHFPGNLPNMLRDLRDAFSRVKTFFQMKDQLDNLLLKESLLEDFKGYLGCQALSEMIQFYLEEVMPQAENQDPDIKAHVNSLGENLKTLRLRLRRCHRFLPCENKSKAVEQVKNAFNKLQEKGIYKAMSEFDIFINYIEAYMTMKIRNGGGGSGGGGSGGGGSSPGQGTQSENSCTHFPGNLPNMLRDLRDAFSRVKTFFQMKDQLDNLLLKESLLEDFKGYLGCQALSEMIQFYLEEVMPQAENQDPDIKAHVNSLGENLKTLRLRLRRCHRFLPCENKSKAVEQVKNAFNKLQEKGIYKAMSEFDIFINYIEAYMTMKIRN
chain 2: DKTHTCPPCPAPELLGGPSVFLFPPKPKDTLMISRTPEVTCVVVDVSHENPEVKFNWYVDGVEVHNAKTKPREEQYNSTYRVVSVLTVLHQDWLNGKEYKCKVSNKALPAPIEKTISKAKGQPREPQVYTLPPSRDELTKNQVSLWCLVKGFYPSDIAVEWESNGQPENNYKTTPPVLDSDGSFFLYSALTVDKSRWQQGNVFSCSVMHEALHNHYTQKSLSLSPGK
notes: purified by protein A only; also called proteinaceous heterodimer of Group C
B2: Human IL10R1 (receptor)
chain: HGTELPSPPSVWFEAEFFHHILHWTPIPNQSESTCYEVALLRYGIESWNSISNCSQTLSYDLTAVTLDLYHSNGYRARVRAVDGSRHSNWTVTNTRFSVDEVTLTVGSVNLEIHNGFILGKIQLPRPKMAPANDTYESIFSHFREYEIAIRKVPGNFTFTHKKVKHENFSLLTSGEVGEFCVQVKPSVASRSNKGMWSKEECISLTRQYFTVTN
notes: Bought recombinant protein coated on the ELISA plate; also called hIL10R1; human IL10R1 proteins

The assay “Human IL10R1” addresses B2. The experiment in a line: ELISA, human IL10R1 coated at 5 ug/mL, detection with goat anti-hIgG-HRP. In general terms: An ELISA detects its analyte on a solid surface through an enzyme-linked reagent.
Experimental: Human IL10R1 (R&D, 9100-R1-050) was diluted to 5 μg/mL with coating buffer (50 mM Na₂CO₃, NaHCO₃ pH 9.6), 100 μL/well, overnight at 4° C. After washing, the plates were sealed with 3% BSA-PBS for 1 h at 37° C. The heterodimer proteins of the present disclosure were respectively diluted from 2000 ng/mL and were then diluted 2-fold to a total of 11 concentrations, with the diluent (1% BSA-PBS) as a control, and incubated for 2 h at 37° C. Goat anti-hIgG-HRP (Sigma, A0170) was added and incubated for 1 h at 37° C. The soluble one-component TMB substrate developing solution was added, and the developing was performed in dark at room temperature for 5-10 min. 2N H₂SO₄ 50 μL/well was added to terminate the color development reaction.
Another assay concerns the target Erb-(IL10)2. Nature of the assay: ELISA, human IL10R1 coated.

B1 gave an EC50 in the assay with Human IL10R1 of 0.0123 µg/mL.

Take B2: the binding result with Erb-(IL10)2 is reported as “binds”.
